Legend:
[1] = target: T1, soluble Alexa-488 labeled human Met-Fc (human, UniProt P08581 25-932, limits assumed, Alexa-488 label); assay: dual receptor direct binding assay, flow cytometry; 220 nM Met-Fc, 2 or 20 nM protein
T1 construct: not shown: Fc part

[2] = target: T2, αvβ3 integrin on K562-αvβ3 cells (K562 leukemia cells transfected with αvβ3 integrin) (UniProt P06756 31-1048; P05106 27-788); assay: K562-αvβ3 cell binding assay
T2 construct: whole, on cells; also called cell-surface αvβ3 integrin
T2 sequence (P06756 31-1048, chain 1 of 2): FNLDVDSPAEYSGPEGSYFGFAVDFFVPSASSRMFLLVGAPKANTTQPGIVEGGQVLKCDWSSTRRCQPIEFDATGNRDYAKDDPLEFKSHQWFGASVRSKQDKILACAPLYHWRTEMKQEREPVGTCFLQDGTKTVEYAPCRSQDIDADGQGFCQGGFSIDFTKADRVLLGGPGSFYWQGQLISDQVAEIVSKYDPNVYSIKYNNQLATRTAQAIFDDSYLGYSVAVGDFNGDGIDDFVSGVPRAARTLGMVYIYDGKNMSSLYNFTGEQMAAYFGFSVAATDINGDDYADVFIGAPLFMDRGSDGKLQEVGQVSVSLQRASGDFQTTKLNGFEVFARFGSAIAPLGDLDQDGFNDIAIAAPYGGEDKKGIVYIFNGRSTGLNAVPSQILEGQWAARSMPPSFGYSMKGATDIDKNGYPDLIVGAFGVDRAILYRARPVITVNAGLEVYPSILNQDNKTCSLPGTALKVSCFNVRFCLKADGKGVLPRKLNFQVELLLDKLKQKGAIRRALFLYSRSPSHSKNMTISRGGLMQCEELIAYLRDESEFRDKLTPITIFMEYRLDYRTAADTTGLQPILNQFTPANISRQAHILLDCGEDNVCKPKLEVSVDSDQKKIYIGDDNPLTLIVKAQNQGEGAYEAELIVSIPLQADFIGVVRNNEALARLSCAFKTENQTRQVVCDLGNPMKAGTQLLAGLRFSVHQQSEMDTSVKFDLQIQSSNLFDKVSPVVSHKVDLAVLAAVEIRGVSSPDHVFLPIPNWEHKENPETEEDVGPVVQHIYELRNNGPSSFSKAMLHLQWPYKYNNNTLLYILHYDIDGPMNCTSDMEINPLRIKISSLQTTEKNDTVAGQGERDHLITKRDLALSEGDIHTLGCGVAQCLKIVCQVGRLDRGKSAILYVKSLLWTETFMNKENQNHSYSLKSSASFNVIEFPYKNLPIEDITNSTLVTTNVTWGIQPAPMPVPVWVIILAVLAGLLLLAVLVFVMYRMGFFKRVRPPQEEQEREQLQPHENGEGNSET
T2 sequence (P05106 27-788, chain 2 of 2): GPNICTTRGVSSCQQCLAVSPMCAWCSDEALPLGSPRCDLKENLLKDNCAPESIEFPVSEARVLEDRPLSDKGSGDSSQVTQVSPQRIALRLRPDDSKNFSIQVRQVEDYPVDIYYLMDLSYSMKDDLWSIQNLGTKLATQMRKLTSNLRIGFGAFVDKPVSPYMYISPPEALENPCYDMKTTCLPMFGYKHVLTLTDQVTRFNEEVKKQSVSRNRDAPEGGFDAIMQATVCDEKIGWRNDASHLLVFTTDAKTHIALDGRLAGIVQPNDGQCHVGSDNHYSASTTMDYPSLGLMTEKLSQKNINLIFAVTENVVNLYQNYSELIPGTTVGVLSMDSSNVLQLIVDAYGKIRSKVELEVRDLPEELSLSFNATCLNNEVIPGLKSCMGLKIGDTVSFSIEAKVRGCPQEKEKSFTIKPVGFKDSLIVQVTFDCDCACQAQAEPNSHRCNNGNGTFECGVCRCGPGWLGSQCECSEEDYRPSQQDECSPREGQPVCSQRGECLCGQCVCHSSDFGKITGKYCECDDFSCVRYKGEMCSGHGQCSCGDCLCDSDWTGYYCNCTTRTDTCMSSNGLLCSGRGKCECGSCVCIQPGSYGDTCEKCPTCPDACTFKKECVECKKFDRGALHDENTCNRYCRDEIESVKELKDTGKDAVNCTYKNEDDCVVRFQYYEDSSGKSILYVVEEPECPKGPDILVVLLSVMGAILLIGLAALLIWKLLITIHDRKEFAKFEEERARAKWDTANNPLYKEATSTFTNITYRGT

[3] = target: T2, αvβ3 integrin on K562-αvβ3 cells (K562 …); assay: binding titration of the soluble fusion protein on K562-αvβ3 cells, flow cytometry; the cells express αvβ3 integrin and also Met receptor
soluble αvβ3 integrin = target: T3, soluble αvβ3 integrin (UniProt P06756 31-992; P05106 27-718); assay: yeast surface display, flow cytometry
T3 construct: also called alpha v beta 3 integrin
T3 sequence (P06756 31-992, chain 1 of 2): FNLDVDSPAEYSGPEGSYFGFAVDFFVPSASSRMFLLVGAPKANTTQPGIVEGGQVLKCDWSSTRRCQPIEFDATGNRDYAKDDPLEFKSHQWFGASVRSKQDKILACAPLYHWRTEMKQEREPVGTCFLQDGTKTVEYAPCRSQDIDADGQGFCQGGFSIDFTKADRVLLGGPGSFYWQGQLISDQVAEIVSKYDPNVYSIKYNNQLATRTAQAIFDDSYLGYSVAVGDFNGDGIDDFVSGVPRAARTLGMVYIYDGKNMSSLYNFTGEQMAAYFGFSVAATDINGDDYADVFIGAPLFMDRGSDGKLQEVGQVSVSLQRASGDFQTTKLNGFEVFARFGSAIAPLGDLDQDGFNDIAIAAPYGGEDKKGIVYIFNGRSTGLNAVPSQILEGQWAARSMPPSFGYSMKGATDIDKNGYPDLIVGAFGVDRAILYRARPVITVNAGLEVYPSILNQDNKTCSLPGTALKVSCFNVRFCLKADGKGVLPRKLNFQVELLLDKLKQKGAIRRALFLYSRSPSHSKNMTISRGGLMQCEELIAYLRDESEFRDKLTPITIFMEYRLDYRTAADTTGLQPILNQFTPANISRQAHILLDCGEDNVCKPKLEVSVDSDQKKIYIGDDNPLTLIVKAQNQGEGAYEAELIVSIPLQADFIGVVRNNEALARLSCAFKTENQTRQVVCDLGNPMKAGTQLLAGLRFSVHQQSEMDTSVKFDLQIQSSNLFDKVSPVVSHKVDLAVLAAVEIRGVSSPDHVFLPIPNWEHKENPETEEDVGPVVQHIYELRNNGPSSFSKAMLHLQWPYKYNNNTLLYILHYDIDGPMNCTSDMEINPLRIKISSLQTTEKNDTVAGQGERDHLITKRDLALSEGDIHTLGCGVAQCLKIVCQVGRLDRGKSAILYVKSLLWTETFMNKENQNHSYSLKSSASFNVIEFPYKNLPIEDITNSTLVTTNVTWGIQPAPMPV
T3 sequence (P05106 27-718, chain 2 of 2): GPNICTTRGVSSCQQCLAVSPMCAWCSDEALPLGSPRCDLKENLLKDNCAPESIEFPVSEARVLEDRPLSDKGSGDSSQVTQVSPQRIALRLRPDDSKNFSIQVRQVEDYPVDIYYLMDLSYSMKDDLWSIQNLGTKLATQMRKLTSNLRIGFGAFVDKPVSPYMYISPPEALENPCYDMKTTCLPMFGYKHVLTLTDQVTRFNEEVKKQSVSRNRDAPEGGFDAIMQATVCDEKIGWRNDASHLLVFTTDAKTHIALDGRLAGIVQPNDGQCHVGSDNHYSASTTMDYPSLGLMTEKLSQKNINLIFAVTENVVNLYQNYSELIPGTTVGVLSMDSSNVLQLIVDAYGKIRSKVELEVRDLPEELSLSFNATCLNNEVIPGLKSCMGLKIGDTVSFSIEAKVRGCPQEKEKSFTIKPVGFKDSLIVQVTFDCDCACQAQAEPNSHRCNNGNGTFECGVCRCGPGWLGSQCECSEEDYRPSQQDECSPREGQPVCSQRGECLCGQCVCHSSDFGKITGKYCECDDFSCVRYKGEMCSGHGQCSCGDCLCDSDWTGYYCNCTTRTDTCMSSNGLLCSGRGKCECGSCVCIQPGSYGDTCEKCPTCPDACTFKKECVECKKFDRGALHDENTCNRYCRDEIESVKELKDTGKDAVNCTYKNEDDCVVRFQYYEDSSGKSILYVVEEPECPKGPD

[4] = target: T4, Gas6 (growth arrest-specific 6), soluble, hexahistidine-tagged (UniProt Q14393 49-678, limits assumed); assay: yeast surface display, flow cytometry
T4 construct: also called Gas6 ligand; soluble Gas6
T4 sequence (looked up): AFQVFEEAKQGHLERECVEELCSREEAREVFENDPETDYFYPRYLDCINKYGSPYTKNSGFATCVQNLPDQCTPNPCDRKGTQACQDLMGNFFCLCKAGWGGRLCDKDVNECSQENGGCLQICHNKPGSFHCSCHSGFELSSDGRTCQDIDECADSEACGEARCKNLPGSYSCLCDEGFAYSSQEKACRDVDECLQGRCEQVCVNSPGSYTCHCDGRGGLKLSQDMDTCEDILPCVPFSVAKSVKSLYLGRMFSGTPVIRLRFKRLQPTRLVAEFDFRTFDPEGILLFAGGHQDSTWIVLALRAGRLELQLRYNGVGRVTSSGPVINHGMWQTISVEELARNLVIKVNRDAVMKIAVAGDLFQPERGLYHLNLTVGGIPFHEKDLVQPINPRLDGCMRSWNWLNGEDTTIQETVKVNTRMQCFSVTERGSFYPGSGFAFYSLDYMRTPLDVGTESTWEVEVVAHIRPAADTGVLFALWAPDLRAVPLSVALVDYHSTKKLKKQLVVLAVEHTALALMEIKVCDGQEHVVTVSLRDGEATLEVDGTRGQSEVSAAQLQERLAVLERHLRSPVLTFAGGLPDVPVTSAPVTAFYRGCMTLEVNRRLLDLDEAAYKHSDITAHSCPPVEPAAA

[5] = target: T4, Gas6 (growth arrest-specific 6), …; assay: yeast surface display, soluble Gas6
[6] = target: T2, αvβ3 integrin on K562-αvβ3 cells (K562 …); assay: binding to cells that express αvβ3 integrin
[7] = target: T2, αvβ3 integrin on K562-αvβ3 cells (K562 …); assay: flow cytometry on K562-αvβ3 cells, anti-FLAG detection

T1 sequence (P08581 25-932 limits assumed): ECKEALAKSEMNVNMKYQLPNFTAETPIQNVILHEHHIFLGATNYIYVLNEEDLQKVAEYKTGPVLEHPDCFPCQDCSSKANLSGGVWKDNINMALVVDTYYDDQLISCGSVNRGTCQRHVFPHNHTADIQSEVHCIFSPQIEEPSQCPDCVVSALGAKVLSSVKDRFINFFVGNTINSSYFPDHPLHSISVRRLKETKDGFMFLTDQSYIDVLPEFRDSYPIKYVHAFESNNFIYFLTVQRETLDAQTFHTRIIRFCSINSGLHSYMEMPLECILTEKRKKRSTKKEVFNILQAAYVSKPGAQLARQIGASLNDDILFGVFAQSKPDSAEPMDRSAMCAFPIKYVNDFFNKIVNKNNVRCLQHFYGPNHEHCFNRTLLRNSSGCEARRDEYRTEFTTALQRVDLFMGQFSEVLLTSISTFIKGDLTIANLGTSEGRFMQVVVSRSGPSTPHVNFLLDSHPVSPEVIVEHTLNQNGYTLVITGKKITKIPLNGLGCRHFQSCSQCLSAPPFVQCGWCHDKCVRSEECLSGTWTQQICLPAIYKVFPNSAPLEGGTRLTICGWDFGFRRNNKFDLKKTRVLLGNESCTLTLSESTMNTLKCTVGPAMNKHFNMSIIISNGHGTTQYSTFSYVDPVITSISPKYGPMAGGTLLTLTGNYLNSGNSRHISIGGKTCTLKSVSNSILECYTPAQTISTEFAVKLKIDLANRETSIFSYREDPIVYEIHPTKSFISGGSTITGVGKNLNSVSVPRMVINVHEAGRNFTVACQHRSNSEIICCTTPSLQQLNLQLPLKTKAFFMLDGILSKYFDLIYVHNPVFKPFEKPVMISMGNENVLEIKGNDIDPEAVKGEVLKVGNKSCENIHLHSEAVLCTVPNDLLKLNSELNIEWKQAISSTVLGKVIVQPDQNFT

B1: EETI2.5F-M2.2(D127A) fusion protein (designed binder)
chain: DYKDDDDKPRGCPRPRGDNPPLTCSQDSDCLAGCVCGPNGFCGYAEGQRKRRNTIHEFKKSAKTTLIKIDPALKIKTEKVNTADQCANRCTRNKGLPFTCKAFVFDKARKRCLWFPFNSMSSGVKKEFGHEFDLYENKDYIRACIIGNGRSYRGTVSITKSGIKCQPWSSMIPHEHSFLPSSYRGEDLRENYCRNPRGEEGGPWCFTSDPEVRYEVCDIPQCSEVETRHHHHHH
With B1 the binding result [1] was “binds” and the Kd [2] was 4.6 nM.

B2: EETI2.5F-M2.2 fusion protein (designed binder)
chain: DYKDDDDKPRGCPRPRGDNPPLTCSQDSDCLAGCVCGPNGFCGYAEGQRKRRNTIHEFKKSAKTTLIKIDPALKIKTEKVNTADQCANRCTRNKGLPFTCKAFVFDKARKRCLWFPFNSMSSGVKKEFGHEFDLYENKDYIRDCIIGNGRSYRGTVSITKSGIKCQPWSSMIPHEHSFLPSSYRGEDLRENYCRNPRGEEGGPWCFTSDPEVRYEVCDIPQCSEVETRHHHHHH
B2: binds [1].

B3: AgRp7A-M2.2 fusion protein (designed binder)
chain: DYKDDDDKPRGCVRLHESCLGQQVPCCDPAATCYCSGRGDNDLVCYCRYAEGQRKRRNTIHEFKKSAKTTLIKIDPALKIKTEKVNTADQCANRCTRNKGLPFTCKAFVFDKARKRCLWFPFNSMSSGVKKEFGHEFDLYENKDYIRDCIIGNGRSYRGTVSITKSGIKCQPWSSMIPHEHSFLPSSYRGEDLRENYCRNPRGEEGGPWCFTSDPEVRYEVCDIPQCSEVETRHHHHHH
B3: binds [1].

B4: AgRP7A-Aras4 fusion protein (soluble, FLAG and His tagged) (designed binder)
chain: DYKDDDDKPRGCVRLHESCLGQQVPCCDPAATCYCSGRGDNDLVCYCRYAEGQGKRRNTIHEFKKSAKTTLIKIDPALRIKTEKANTADQCANRCTRSKGLPFTCKAFVFDKARKRCLWFPFNSMSSGVKKEFGHEFDLYENKAYIRDCIIGRGRNYRGTVSITKSGIKCQPWSAMIPHEHSFLPSSYRGEDLRENYCRNPRGEEGGPWCYTSDPEVRYEVCDIPQCSEVETRHHHHHH
notes: Produced in Pichia pastoris
In the case of B4, the “EC50 (read off the curve)” value [3] is reported as ~1 nM.

B5: AgRp7A-M2.2(D127A) fusion protein (designed binder)
chain: DYKDDDDKPRGCVRLHESCLGQQVPCCDPAATCYCSGRGDNDLVCYCRYAEGQRKRRNTIHEFKKSAKTTLIKIDPALKIKTEKVNTADQCANRCTRNKGLPFTCKAFVFDKARKRCLWFPFNSMSSGVKKEFGHEFDLYENKDYIRACIIGNGRSYRGTVSITKSGIKCQPWSSMIPHEHSFLPSSYRGEDLRENYCRNPRGEEGGPWCFTSDPEVRYEVCDIPQCSEVETRHHHHHH
With B5 the binding result [1] was “binds” and the Kd [2] was 2.1 nM.

B6: wild-type Axl Ig1 (yeast-displayed) (receptor)
chain: APRGTQAEESPFVGNPGNITGARGLTGTLRCQLQVQGEPPEVHWLRDGQILELADSTQTQVPLGEDEQDDWIVVSQLRITSLQLSDTGQYQCLVFLGHQTFVSQPGYVGLEGLP
notes: T0017 footnote says amino acids 19-132; also called Wt Axl; wt Axl Ig1
B6: no binding (tested: 20, 50 or 100 nM αvβ3 integrin) (soluble αvβ3 integrin).

GCPQGRGDWAPTSCKQDSDCRAGCVCGPNGFCG (designed binder, also called EETI 2.5D) [EETI-II mutant 2.5D (yeast-displayed)]: no binding (tested: 0.2, 2 or 20 nM Gas6) [4].

GCALMTPSAVDCKQDSDCLAGCVCLPGMVRCGS (designed binder, also called EETI-II mutants alone) [EETI-II mutant of EA 7.01 alone (expressed without Axl)]: no binding [5].

GCLGGVALAHCKQDSDCLAGCVCHILPELCGS (designed binder, also called EETI-II mutants alone) [EETI-II mutant of EA 7.06 alone (expressed without Axl)]: no binding [5].

GCSWSTLARCKQDSDCLAGCVCMLEPGMRSCGS (designed binder, also called EETI-II mutants alone) [EETI-II mutant of EA 8.04 alone (expressed without Axl)]: no binding [5].

B7: EETI 2.5D-Axl fusion protein (soluble, produced in P. pastoris) (designed binder)
chain: GCPQGRGDWAPTSCSQDSDCLAGCVCGPNGFCGSRGTQAEESPFVGNPGNITGARGLTGTLRCQLQVQGEPPEVHWLRDGQILELADSTQTQVPLGEDEQDDWIVVSQLRITSLQLSDTGQYQCLVFLGHQTFVSQPGYVGLEGLP
notes: Treated with endoH; monomeric; also called 2.5D - Axl Ig1; recombinantly produced EETI 2.5D-Axl
For B7, the Kd [6] was ~2 nM and the Kd [7] was 1.72 nM.

— patent publication US20140073518A1 (Stanford University, published 2014)
